{
  "source": "paper PMC3646729",
  "about": "“Recruitment, Assembly, and Molecular Architecture of the SpoIIIE DNA Pump Revealed by Superresolution Microscopy” (PLoS Biology, 2013)",
  "proteins": {"B1": {"name": "SpoIIIE-GFP fusion (natural protein, B. subtilis, UniProt P21458 1-787, looked up)", "chain": "MAKKKRKSRKKQAKQLNIKYELNGLLCIAISIIAILQLGVVGQTFIYLFRFFAGEWFILCLLGLLVLGVSLFWKKKTPSLLTRRKAGLYCIIASILLLSHVQLFKNLTHKGSIESASVVRNTWELFLMDMNGSSASPDLGGGMIGALLFAASHFLFASTGSQIMAIVMILIGMILVTGRSLQETLKKWMSPIGRFIKEQWLAFIDDMKSFKSNMQSSKKTKAPSKKQKPARKKQQMEPEPPDEEGDYETVSPLIHSEPIISSFSDRNEEEESPVIEKRAEPVSKPLQDIQPETGDQETVSAPPMTFTELENKDYEMPSLDLLADPKHTGQQADKKNIYENARKLERTFQSFGVKAKVTQVHLGPAVTKYEVYPDVGVKVSKIVNLSDDLALALAAKDIRIEAPIPGKSAIGIEVPNAEVAMVSLKEVLESKLNDRPDAKLLIGLGRNISGEAVLAELNKMPHLLVAGATGSGKSVCVNGIITSILMRAKPHEVKMMMIDPKMVELNVYNGIPHLLAPVVTDPKKASQALKKVVNEMERRYELFSHTGTRNIEGYNDYIKRANNEEGAKQPELPYIVVIVDELADLMMVASSDVEDSITRLSQMARAAGIHLIIATQRPSVDVITGVIKANIPSRIAFSVSSQTDSRTILDMGGAEKLLGRGDMLFLPVGANKPVRVQGAFLSDDEVEKVVDHVITQQKAQYQEEMIPEETTETHSEVTDELYDEAVELIVGMQTASVSMLQRRFRIGYTRAARLIDAMEERGVVGPYEGSKPREVLLSKEKYDELSS", "notes": "SpoIIIE DNA translocase of Bacillus subtilis (strain PY79 derivative); the SpoIIIE gene was replaced by a SpoIIIE-GFP fusion, no wild-type copy left; The fusion is said to be fully functional, so it is probably the whole protein; also called SpoIIIE ATPase; SpoIIIE DNA translocase; source: B. subtilis PY79 derivative, SpoIIIE-GFP fusion under the endogenous promoter, in live cells"}},
  "target": "the molecule itself",
  "experiment": "two-photon number and brightness analysis (N&B, fluorescence fluctuation microscopy); live B. subtilis cells with SpoIIIE-GFP; clusters at sporulation and division septa, after induction of sporulation or in exponential growth; brightness normalised to monomeric freely diffusing GFP; excitation at 930 nm, 50 raster scans",
  "data": [
    {"protein": "B1", "values": [
      {"measurement": "stoichiometry N", "value": 6}
    ]}
  ]
}
